The values that follow are results of earlier work, collected in PMC10536416.

Where two headings read alike, the source gives them in different places.

The target of data set [1] is Amyloid beta 1-42 Abeta 1-42 (Homo sapiens) (UniProt P05067).
Data set [2] has the same target. The source holds these as a separate data set.

Consider “Amyloid beta 1-40 Abeta 1-40 (from UniProt P05067)”, for which the Kd in data set [1] is 266 nM. As for “Amyloid beta 1-40 on dextran-coated iron oxide nanoparticles Abeta 1-40 (from UniProt P05067)”, the Kd in data set [2] is 202 nM.

One may read the Kd as the equilibrium constant for the complex coming apart.
